What all share (test): Kinetic parameters for hydrolysis of internally quenched fluorogenic peptides by secPHEX
What all share (type): biochemical, human
Holding throughout (conditions): other: 37° C., 10 mM Bis-Tris buffer pH 5.5, 150 mM NaCl

Substrate in data set [1]: C[C@H](NC(=O)[C@H](CO)NC(=O)c1ccccc1N)C(=O)N[C@@H](CCC(=O)O)C(=O)N[C@@H](CC(=O)O)C(=O)N[C@@H](CC(N)=O)C(=O)N[C@@H](CO)C(=O)N1CCC[C@H]1C(=O)N[C@@H](CCC(N)=O)C(=O)NCCNc1ccc([N+](=O)[O-])cc1[N+](=O)[O-]
How it is done:
(§1) The human recombinant secPHEX was obtained following the procedure previously described (17, WO 00/50580). Purified secPHEX concentration was determined using the Bradford method (DC protein assay kit; Bio-Rad, Mississauga, ON, Canada). Membrane-bound recombinant human PHEX was expressed in LLC-PK1 cells (17, (WO 00/50580)) and membranes were prepared essentially as described by Guo et al. (34). Briefly, transfected cells resuspended in lysis buffer (150 mM NaCl, 20 mM Tris.HCl, pH 7.6) were disrupted by sonication. Cell debris were removed by centrifugation at 300 g for 15 min at 4 °C. Membranes were collected by centrifugation at 30,000 g for 50 min and solubilized for 2h with 1% n-dodecyl-β-D-maltoside in lysis buffer. Insoluble material was pelleted by centrifugation at 10,000 g for 15 min and protein concentrations of the supernatant determined using the Bradford method described above. PHEX amounts were evaluated by immunoblotting as described previously (17). NEP expression and purification were performed as described previously (36).
(§2) The hydrolysis of the IQFPs, at 37° C., in 10 mM Bit-Tris buffer pH 5.5 (0.35 to 1.0 ml final volume) containing 150 mM NaCl, was continuously followed measuring the fluorescence at γem=420 nm and γex=320 nm in a Hitachi F-2000™ spectrofluorometer. The cuvefte containing the buffer and the substrate was placed in a thermostatically controlled cell compartment for 5 min before the addition of the enzyme and the increase in fluorescence with time was continuously recorded for 5-10 min. The enzyme concentration for initial rate determination was chosen at a level intended to hydrolyze less than 5% of the substrate present. The slope was converted into micromoles of substrate hydrolyzed per min based on a calibration curve obtained from complete hydrolysis of each peptide. The inner-filter effect was corrected using an empirical equation as previously described (43). The kinetic parameters Km and kcat were calculated by the non-linear regression data analysis Grafit program (42). The kcat/Km values were calculated as the ratio of these two determined parameters. The apparent second order rate constant kcat/Km (*kIt/Km) was determined under pseudo first-order conditions, where [S]<<Km. These determinations were performed in two different substrate concentrations and the errors were less than 5% for any obtained value.
(§3) To determine the position of cleavage in peptides of the IQFPs combinatorial libraries, the products resulting from hydrolysis by secPHEX were submitted to N-terminal amino acid sequencing in a PPSQ-23protein sequencer (Shimadzu Tokyo, Japan). The scissile bonds in the IQFPs secPHEX substrates derived from PTHrP107-139, FGF-23and MEPE were determined by amino acid sequencing and by MALDI-TOF™ mass spectrometry (TofSpec-E™, Micromass, Manchester, U.K.) after isolation of the fragments resulting from the hydrolysis by secPHEX by analytical HPLC.
(§4) The assays were performed at 37° C., in 10 mM Bis-Tris buffer pH 5.5, containing 150 mM NaCl. Measurements were made as described under the heading “Experimental Procedures” above. Cleavage sites are indicated as arrows (↓). The standard deviations of the kinetic constants were less than 5%.
(§5) The assays were performed at 37° C., in 10 mM Bis-Tris buffer pH 5.5, containing 150 mM NaCl. Measurements were made as described under the heading “Experimental Procedures” above. Cleavage sites are indicated by arrows (↓). The standard deviations of the kinetic constants were less than 5%.
(§6) The assays were. performed at 37° C., in 10 mM Bis-Tris buffer pH 5.5, containing 150 mM NaCl. Measurements were made as described under the heading “Experimental Procedures” above. Cleavage sites are indicated by arrows (↓). The standard deviations of the kinetic constants were less than 5%.
(§7) The assays were performed at 37° C., in 10 mM Bis-Tris buffer pH 5.5, containing 150 mM NaCl. Measurements were made as described under “Experimental Procedures”. […]

Substrate in data set [2]: NC(=O)CC[C@H](NC(=O)[C@H](Cc1ccc(O)cc1)NC(=O)[C@H](CC(=O)O)NC(=O)[C@H](CO)NC(=O)[C@H](Cc1ccccc1)NC(=O)CNC(=O)c1ccccc1N)C(=O)NCCNc1ccc([N+](=O)[O-])cc1[N+](=O)[O-]
The protocol: as §1, §2, §3, §4, §5, §6, §7

Substrate in data set [3]: CC[C@H](C)[C@H](NC(=O)[C@H](CC(=O)O)NC(=O)[C@H](CC(N)=O)NC(=O)[C@H](CO)NC(=O)CNC(=O)c1ccccc1N)C(=O)N[C@@H](CCSC)C(=O)NCC(=O)N[C@@H](CCC(N)=O)C(=O)NCCNc1ccc([N+](=O)[O-])cc1[N+](=O)[O-]
The protocol:
as §1, §2, §3, §4, §5, §6, §7

Substrate in data set [4]: NC(=O)[C@H](CCCCNc1ccc([N+](=O)[O-])cc1[N+](=O)[O-])NC(=O)[C@H](Cc1ccc(O)cc1)NC(=O)[C@H](CC(=O)O)NC(=O)[C@H](CO)NC(=O)[C@H](Cc1ccccc1)NC(=O)CNC(=O)c1ccccc1N
How it is done: as §1, §2, §3, §4, §5, §6, §7

Substrate in data set [5]: CC(C)C[C@H](NC(=O)c1ccccc1N)C(=O)N[C@@H](CCC(=O)O)C(=O)N[C@@H](CC(C)C)C(=O)N[C@@H](CC(=O)O)C(=O)N[C@@H](CO)C(=O)N[C@@H](CCCNC(=N)N)C(=O)N[C@@H](CCC(N)=O)C(=O)NCCNc1ccc([N+](=O)[O-])cc1[N+](=O)[O-]
How it is done: as §1, §2, §3, §4, §5, §6, §7

B1: human recombinant secPHEX (Homo sapiens) (protein)
chain: SLQAKQEYCLKPECIEAAAAILSKVNLSVDPCDNFFRFACDGWISNNPIPEDMPSYGVYPWLRHNVDLKLKELLEKSISRRRDTEAIQKAKILYSSCMNEKAIEKADAKPLLHILRHSPFRWPVLESNIGPEGVWSERKFSLLQTLATFRGQYSNSVFIRLYVSPDDKASNEHILKLDQATLSLAVREDYLDNSTEAKSYRDALYKFMVDTAVLLGANSSRAEHDMKSVLRLEIKIAEIMIPHENRTSEAMYNKMNISELSAMIPQFDWLGYIKKVIDTRLYPHLKDISPSENVVVRVPQYFKDLFRILGSERKKTIANYLVWRMVYSRIPNLSRRFQYRWLEFSRVIQGTTTLLPQWDKCVNFIESALPYVVGKMFVDVYFQEDKKEMMEELVEGVRWAFIDMLEKENEWMDAGTKRKAKEKARAVLAKVGYPEFIMNDTHVNEDLKAIKFSEADYFGNVLQTRKYLAQSDFFWLRKAVPKTEWFTNPTTVNAFYSASTNQIRFPAGELQKPFFWGTEYPRSLSYGAIGVIVGHEFTHGFDNNGRKYDKNGNLDPWWSTESEEKFKEKTKCMINQYSNYYWKKAGLNVKGKRTLGENIADNGGLREAFRAYRKWINDRRQGLEEPLLPGITFTNNQLFFLSYAHVRCNSYRPEAAREQVQIGAHSPPQFRVNGAISNFEEFQKAFNCPPNSTMNRGMDSCRLW
notes: pure soluble form of PHEX (secPHEX); made in house
For B1, the Michaelis-Menten constant (Km) was 22.0 µM in data set [1]; 13.3 µM in data set [2]; 13.0 µM in data set [3]; 53.2 µM in data set [4]; 0.9 µM in data set [5]. Also, the turnover number (kcat) is 0.3 s⁻¹ in data set [1]; 0.6 s⁻¹ in data set [2]; 0.01 s⁻¹ in data set [3]; 1.3 s⁻¹ in data set [4]; 0.05 s⁻¹ in data set [5]. The kcat/Km in data set [1] amounted to 13600 M⁻¹ s⁻¹; in data set [2], 45100 M⁻¹ s⁻¹; in data set [3], 800 M⁻¹ s⁻¹; in data set [4] it was 24400 M⁻¹ s⁻¹; in data set [5], 55500 M⁻¹ s⁻¹.

The Km is the concentration of substrate that gives half-maximal velocity. For orientation: kcat means the number of substrate molecules converted per active site and unit of time at saturation. The kcat/Km is the second-order rate constant that governs catalysis at low substrate concentration.

The values above are taken from US20060292657A1, “Phex substrates and methods using same” (priority 2003, published 2006).
